Source: publication PMC6152284, “Cloning and Characterization of Two Iridoid Synthase Homologs from Swertia Mussotii” (Molecules : A Journal of Synthetic Chemistry and Natural …, 2017)

B1: SmIS2 (Swertia mussotii) (protein)
chain: MSWWWTGAVAAAREKVYDERPKTSPSVALIIGVTGIVGNSLADILPLSDTPGGPWKVYGVARRPRPAWSEDHPVEYIQLDVYNAKETQSKLSPLTDITHIFWTTWANRPTEAECCQVNGAMLQNVIDAVLPNAPNLSHICIQTGHKHYIGPFETFGKIKPHETPFIEDVPRLDVPNFYYTLEDITLETCKKKEGLTWSVHRPAVIFGFSPYSMMNLIGSLCVYAAICKHENVPFTYPGTKGAWNCYSVASDADLIAEHQIWASVDPYAKNEAYNCSNGDLFKWKSLWKVLAEQFDLEYVEFDENQDYVSLAERMKDKGPVWDEIVKQNKLTPTKLEEVATFWFADVIFSGECMLDSMSKSKEHGFLGFRDTTKSLLSVVGKMKAHKIVP
notes: pET-28a, 6-His tags at N- and C-terminus (~46 kDa); E. coli BL21(DE3), purified
B2: SmIS1 (Swertia mussotii) (protein)
chain: MSWWWKRSVQAQNLPEKNQPNGVAETAGRYESVALVVGVTGIVGSSLAQVLKLPDTPGGPWKVYGVARRPCPAWLAKFHVEYIQCDVSNTEEAKTKLSPLKDVTHIFYVSWIGSEDCETNAVMFKNILYNIIPVAPNLKHISLQTGSKHYFGIFEEGSEAVPHESPYTEDLPRLNIPNFYHDLEDILFEETAKHGLTWCVQRPALIFGFSPCSLMNIVSTLSIYATICKHEKKPLVYPGSKASWNCYVDGADADLAAEHHIWAAVDPKAKNQVFNVKNGDVFKWKNVWKMLADEFEMEMVGYIEGNEQVSMAELMKDKDGVWDEIVKKHKLEDTKLKEIAAFWFADIAFSCVDLVMSVTKSREFGFLGFRDSMKSFKSCIHKMRDFKFIP
notes: pETMALc-H, N-terminal MBP fusion with 10 His (~88 kDa); E. coli BL21(DE3), purified

Key:
purified protein [1] = substrate: C/C(C=O)=C\CC/C(C)=C/C=O; experiment: purified protein; type: biochemical, Swertia mussotii; conditions: co-substrate NADPH, 20 mM MOPS pH 7.0, 40 °C, substrate stock contained 8-oxoneral isomer
purified protein [2] = substrate: NC(=O)C1=CN([C@@H]2O[C@H](COP(=O)(O)OP(=O)(O)OC[C@H]3O[C@@H](n4cnc5c(N)ncnc54)[C@H](OP(=O)(O)O)[C@@H]3O)[C@@H](O)[C@H]2O)C=CC1; experiment: purified protein; type: biochemical, Swertia mussotii; conditions: co-substrate 8-oxogeranial, 20 mM MOPS pH 7.0, 40 °C, varied: cofactor

Protein	Km (purified protein [1]; His-tagged)	kcat (purified protein [1]; His-tagged)	kcat/Km (purified protein [1]; His-tagged)	Km (purified protein [2]; His-tagged)	kcat (purified protein [2]; His-tagged)	kcat/Km (purified protein [2]; His-tagged)	Km (purified protein [1]; MBP fusion)	kcat (purified protein [1]; MBP fusion)	kcat/Km (purified protein [1]; MBP fusion)	Km (purified protein [2]; MBP fusion)	kcat (purified protein [2]; MBP fusion)	kcat/Km (purified protein [2]; MBP fusion)
B1	54.37 ± 4.29 µM	0.034 ± 0.001 s⁻¹	629 ± 75.9 M⁻¹ s⁻¹	41.83 ± 7.2 µM	0.026 ± 0.01 s⁻¹	628 ± 105 M⁻¹ s⁻¹						
B2							7.29 ± 1.59 µM	0.11 ± 0.007 s⁻¹	15600 ± 4350 M⁻¹ s⁻¹	77.94 ± 6.03 µM	0.135 ± 0.01 s⁻¹	1732 ± 11.3 M⁻¹ s⁻¹
